Among the data in publication PMC10542384 are response (PLA foci per cell) values, retold here.

B1: HA-RNF111 wild type (HA-RNF111^WT) in RNF111 KO U2OS cells [not stated] / Arkadia-like 1 (ARKL1) [human (endogenous in U2OS)] (parent)
chain 1: MSQWTPEYNELYTLKVDMKSEIPSDAPKTQESLKGILLHPEPIGAAKSFPAGVEMINSKVGNEFSHLCDDSQKQEKEMNGNQQEQEKSLVVRKKRKSQQAGPSYVQNCVKENQGILGLRQHLGTPSDEDNDSSFSDCLSSPSSSLHFGDSDTVTSDEDKEVSVRHSQTILNAKSRSHSARSHKWPRTETESVSGLLMKRPCLHGSSLRRLPCRKRFVKNNSSQRTQKQKERILMQRKKREVLARRKYALLPSSSSSSENDLSSESSSSSSTEGEEDLFVSASENHQNNPAVPSGSIDEDVVVIEASSTPQVTANEEINVTSTDSEVEIVTVGESYRSRSTLGHSRSHWSQGSSSHASRPQEPRNRSRISTVIQPLRQNAAEVVDLTVDEDEPTVVPTTSARMESQATSASINNSNPSTSEQASDTASAVTSSQPSTVSETSATLTSNSTTGTSIGDDSRRTTSSAVTETGPPAMPRLPSCCPQHSPCGGSSQNHHALGHPHTSCFQQHGHHFQHHHHHHHTPHPAVPVSPSFSDPACPVERPPQVQAPCGANSSSGTSYHEQQALPVDLSNSGIRSHGSGSFHGASAFDPCCPVSSSRAAIFGHQAAAAAPSQPLSSIDGYGSSMVAQPQPQPPPQPSLSSCRHYMPPPYASLTRPLHHQASACPHSHGNPPPQTQPPPQVDYVIPHPVHAFHSQISSHATSHPVAPPPPTHLASTAAPIPQHLPPTHQPISHHIPATAPPAQRLHPHEVMQRMEVQRRRMMQHPTRAHERPPPHPHRMHPNYGHGHHIHVPQTMSSHPRQAPERSAWELGIEAGVTAATYTPGALHPHLAHYHAPPRLHHLQLGALPLMVPDMAGYPHIRYISSGLDGTSFRGPFRGNFEELIHLEERLGNVNRGASQGTIERCTYPHKYKKVTTDWFSQRKLHCKQDGEEGTEEDTEEKCTICLSILEEGEDVRRLPCMHLFHQVCVDQWLITNKKCPICRVDIEAQLPSES
chain 2: MKMEEAVGKVEELIESEAPPKASEQETAKEEDGSVELESQVQKDGVADSTVISSMPCLLMELRRDSSESQLASTESDKPTTGRVYESDSSNHCMLSPSSSGHLADSDTLSSAEENEPSQAETAVEGDPSGVSGATVGRKSRRSRSESETSTMAAKKNRQSSDKQNGRVAKVKGHRSQKHKERIRLLRQKREAAARKKYNLLQDSSTSDSDLTCDSSTSSSDDDEEVSGSSKTITAEIPDGPPVVAHYDMSDTNSDPEVVNVDNLLAAAVVQEHSNSVGGQDTGATWRTSGLLEELNAEAGHLDPGFLASDKTSAGNAPLNEEINIASSDSEVEIVGVQEHARCVHPRGGVIQSVSSWKHGSGTQYVSTRQTQSWTAVTPQQTWASPAEVVDLTLDEDSRRKYLL

This assay covers variants of B1. The assay can be described thus: proximity ligation assay (PLA). To be noted: with Arkadia-like 1 (ARKL1) [human (endogenous in U2OS)]; RNF111 KO U2OS cells complemented with vector (n = 19), HA-RNF111WT (n = 18), HA-RNF111 K237/238R (n = 28); antibodies to HA and ARKL1; parent: 7.5; read off a plot.
In the case of chain 1 K237R K238R, the response (PLA foci per cell) turned out to be 3.2.
